Biological target: the molecule itself
Experiment: crystal structure

B1: Human TRAAK A198E, crystallisation construct (C-terminally truncated, N104Q/N108Q) (domain or fragment)
chain: MTTAPQEPPARPLQAGSGAGPAPGRAMRSTTLLALLALVLLYLVSGALVFRALEQPHEQQAQRELGEVREKFLRAHPCVSDQELGLLIKEVADALGGGADPETQSTSQSSHSAWDLGSAFFFSGTIITTIGYGNVALRTDAGRLFCIFYALVGIPLFGILLAGVGDRLGSSLRHGIGHIEAIFLKWHVPPELVRVLSEMLFLLIGCLLFVLTPTFVFCYMEDWSKLEAIYFVIVTLTTVGFGDYVAGADPRQDSPAYQPLVWFWILLGLAYFASVLTTIGNWLRVVSRRTRAEMGGLTAQSNSLEVLFQ
stoichiometry N: 2

Reference: paper PMC8448962 (Neuron, 2021)
